Test results reported in the DeepSol protein solubility set.

test: soluble on expression in E. coli; label from the status in PepcDB or PDB records

Sequence | soluble on expression in E. coli
MDVFDGLPDPIIVDILNKVGDVKTLLRCSSLSKRFNSLVPQSESLTLRLDHSVSDSPVVTSIFRSLFNGLVSLLSKPAKPITITTLSPSLPFKILSRFDRIRNLDVELPGGDVKLEKGAAVKWKAEFGKTLKSCVIVAFRSAGTVSSPVAVEGESDAEFVTGLKTRVVWTISALMAASSRHYLMREVVKEHEEIESLVMRDKEREGTVVMNEEGLKELRNTEARVEDEERVVKNKRSVVPSVRMSMRHAPSLKLKSGICLESATLVIVRPSGADFEVGDDAELATEAFVGDCMYGEAVVALLKCKKNALEMNSF | not soluble
MDVSQWEQFAKHRSAVIRDYGMWIGLMDNNMEPIVDMPAPVSIDAPITRMTPSSCKAVFKTRVDGHIHPMVDYLIAENLAKVDEQGQLIAAAQDAVFLAIEVAQGIRNVYKGVFTVALGDQESPTLLEFNGVCEIQWTLGALPCPSAPYSWTGKWVDLNQDWAGKWSKTRTMADIKVAEVADGFTLSGAADTTIGKLISQSLQAINTMLKSKGRSLPIAVKPVTSNPTSPQLVIRPTDRFIWDEISDLALAAGVTVKCKTWWPSDPPVPGLDLKEPIVVIEITQEE | not soluble
MDVTALCHKIFLHIHGLISADRYSLFLVCEDSSKDKFLISRLFDVAEGSTLEEASNNCIRLEWNKGIVGHVAAFGEPLNIKDAYEDPRFNAEVDQITGYKTQSILCMPIKNHREEVVGVAQAINKKSGNGGTFTEKDEKDFAEYLAFCGEVLHNAQLYETSLLENKRNLEHHHHHH | soluble
MDYHSNGNGINGMNGSSRHSADGPSTPTHSGNGHSNGEGNSTYWETAPAEMVELADKYNFTINEGSSIQQEALELRSVIRKDLTKKLKIKSGYSRIKLITSDRRQSEFLRYELSDLNEQIADLQEDLQALEMYNSGAFDEDVMYLDNLEDCDVENGPPSKLVILQLELEKELKVKRGLEQFLRGAPDKSKVHGDSQSLLDDSRAKIAMLRMQIERLSQEAPAVEGEPKTKVELAIDDLIIRFHKEKLIMDGSRNMIRILRSKRKPDSKAVDEAMNSYVIASEKADLIKLALLKYASSLPLEHDHRKYLI | not soluble
MDYREVDSTSEFVCRLEHGGDWRAQIEAFADEQGIDAGFFYGLGAVQDAELMFYDQDRTEYDSLTFDEPLEVAACMGNISHFDGERFAHTHAVLSRPDGEAVAGHLNAGTVWAGELYVRGFDTELQREHDEPTDLDLWNILEHHHHHH | not soluble
MDYTASYYTDEELAKLFKAAKGDPLELPIVLAAYYGLRRSEIIGLRWDAIDFNPDDPKITIQFTVTEVNFGDGQGNVIIEKEGTKSKASKRTLPLVKPIADLLLQKKKDIENNRRLCGSCYNDKYLDFVHVNEIGERMKPNYISQHFALLLEKHGLKKIRFHDLRHSCASLLYANGVSLKQIQEWLGHSDISTTANIYTHLDYNSKIATANAILPVLFDQLEHHHHHH | not soluble
MEAKLQVGVLGFGTVGSGVIHILEEHQEKISQVTGYHISVKKVLVRDLEKNRRYETKGFELTTNPSDVLDDPEIAVVVEVMGSITTAREYILQALKAGKHVVTANKDLIALHGDELVAVAQANNCDLFYEASVAGGIPILRTIVNSLAADKIQKVMGIVNGTTNFMLTKMTTEKKSYEEVLAEAQALGFAESDPTNDVDGIDAARKMVIMTRLAFGMNVNLDNVETSGIRGISPEDIEVAYQLGYKIKLVGTAEETNGTVNVNVGPVLLPKAHPLAGVNYENNAVFVTGAAVGETMFYGPGAGELPTATSVVSDLITVAKNSRLGTNGNAFNSYKHETKHTPKEQVFSKYYLRLTMDDKTGTFLKLTQIFAEAGVGFDKILQQPYDDFTATVVIVTHSTSQAQLEQAITRVKNEPEMQMLAKYSVVEG | soluble
MEAKTNTFLLVAERWWNVKKTSVTEDYADDIWRSLERDIFPAIGDISITEIKAHTLVKAVQPVQARGALETVRRLCQRINEVMIYAQNTGLIDAVPSVNIGKAFELEHHHHHH | not soluble
MEANTSSSGTVTGQRFAERRRSLPPGAELRQRLLKQLKELCDQIGKAYSTLVQKAALVIEPADQAVSLEPDTQRQATCITNLSDEGELWTTVYELNLGVQNLLMFIEDIRLLLLTQAQVPGPSVEENGLKTAGKGGCSPTELEGARFSDRLSSSNTHRFLEQLWDRYTP | soluble
